Test results from PMC11775580.

What was measured:
[1] = target: pSer2 CTD peptide (RNA polymerase II CTD, about two heptads, phosphorylated at Ser2); test: fluorescence polarisation
[2] = target: pSer7 CTD peptide (RNA polymerase II CTD, about two heptads, phosphorylated at Ser7); test: fluorescence polarisation

Binder	Kd [1] [µM]	Kd [2] [µM]
RPRD1B CID domain (residues 2-133), wild type (domain or fragment) SSFSESALEKKLSELSNSQQSVQTLSLWLIHHRKHAGPIVSVWHRELRKAKSNRKLTFLYLANDVIQNSKRKGPEFTREFESVLVDAFSHVAREADEGCKKPLERLLNIWQERSVYGGEFIQQLKLSMEDSK	22.5	32.5
RPRD1B CID domain (residues 2-133), Tyr61 to alanine (domain or fragment) SSFSESALEKKLSELSNSQQSVQTLSLWLIHHRKHAGPIVSVWHRELRKAKSNRKLTFLALANDVIQNSKRKGPEFTREFESVLVDAFSHVAREADEGCKKPLERLLNIWQERSVYGGEFIQQLKLSMEDSK	37.8	–
RPRD1B CID domain (residues 2-133), Arg114A mutant (domain or fragment) SSFSESALEKKLSELSNSQQSVQTLSLWLIHHRKHAGPIVSVWHRELRKAKSNRKLTFLYLANDVIQNSKRKGPEFTREFESVLVDAFSHVAREADEGCKKPLERLLNIWQEASVYGGEFIQQLKLSMEDSK	37.9	–
